Source: US20100144822

Tested on: Argyrin A

In the case of “purified human erythrocyte derived 20S proteasome”, the “activity of the caspase-, chymotrypsin- and trypsin-like proteasome activities (fluorogenic peptide substrates)” value was “incubation of purified human 20S proteasome with Argyrin A led to a dose dependent inhibition of the caspase, trypsin and chymotrypsin like proteasome activities”.
